One may read the EC50 as the concentration at which the effect is half-maximal. The low end stands for higher potency in that assay, the high end for lower potency in that assay. What is called Kd is the constant that tells how readily two partners part at equilibrium. Read a high Kd as a looser complex.

The source of these data is patent publication US20240059758A1 (CORAT THERAPEUTICS, published 2024).

In experiment [1] the target is receptor binding domain (RBD) of the S1-subunit of SARS-CoV-2 glycoprotein S (SARS-CoV-2, UniProt P0DTC2 319-541). Put plainly: titration ELISA, IgG on RBD.
Experiment [2] addresses T1, S1-His (SARS-CoV-2, UniProt P0DTC2 16-685). Put plainly: BLI, antibody on Protein A sensor, S1-His in solution.
Experiment [3] addresses T2, SARS-CoV-2 glycoprotein S (spike) on infectious virus (SARS-CoV-2, UniProt P0DTC2 14-1273). Put plainly: cell-based or functional assay.
Experiment [4] concerns the target T1, S1-His. Put plainly: BLI, antibody on FAB2G capture sensor, S1-His in solution. (BLI is a label-free optical method that tracks binding on a fibre tip over time.)
The target of experiment [5] is T2, SARS-CoV-2 glycoprotein S (spike) on …. Put plainly: cell-based or functional assay. This is another data set of the same source.
Experiment [6] deals with RBD-mFc (Sino Biologicals) (SARS-CoV-2, UniProt P0DTC2 319-541). Put plainly: BLI, RBD-mFc on anti-mouse Fc capture sensor, Fab in solution.
For another experiment, the target named is SARS-CoV-1 Spike protein (SARS-CoV-1, UniProt P59594 14-667). Put plainly: titration ELISA. (In general: An ELISA detects its analyte on a solid surface through an enzyme-linked reagent.)
The target in another experiment is T3, MERS-CoV Spike protein (MERS-CoV, UniProt K9N5Q8 18-725).
T3 sequence: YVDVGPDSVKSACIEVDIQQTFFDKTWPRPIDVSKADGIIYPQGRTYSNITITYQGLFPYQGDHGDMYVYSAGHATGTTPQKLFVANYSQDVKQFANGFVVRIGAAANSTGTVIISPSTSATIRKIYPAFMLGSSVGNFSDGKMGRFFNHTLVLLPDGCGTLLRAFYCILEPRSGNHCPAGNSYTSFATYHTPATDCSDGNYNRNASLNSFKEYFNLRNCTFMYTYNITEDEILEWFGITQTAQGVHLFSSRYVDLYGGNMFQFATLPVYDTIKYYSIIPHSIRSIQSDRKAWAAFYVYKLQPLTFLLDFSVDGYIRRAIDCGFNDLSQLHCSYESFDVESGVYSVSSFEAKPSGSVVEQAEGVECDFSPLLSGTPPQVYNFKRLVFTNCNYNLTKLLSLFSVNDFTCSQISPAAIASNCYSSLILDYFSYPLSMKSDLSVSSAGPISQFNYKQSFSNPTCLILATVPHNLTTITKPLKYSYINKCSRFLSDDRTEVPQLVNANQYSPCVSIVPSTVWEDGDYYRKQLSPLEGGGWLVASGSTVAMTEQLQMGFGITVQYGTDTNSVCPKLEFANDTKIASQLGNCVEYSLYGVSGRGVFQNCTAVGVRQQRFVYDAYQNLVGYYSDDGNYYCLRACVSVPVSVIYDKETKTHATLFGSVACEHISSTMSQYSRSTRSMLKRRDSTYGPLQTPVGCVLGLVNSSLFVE
The experiment is described as follows: titration ELISA.

For the next experiment, the target named is T4, HCov-HKU1 Spike protein (HCoV-HKU1, UniProt Q5MQD0 13-760).
T4 sequence: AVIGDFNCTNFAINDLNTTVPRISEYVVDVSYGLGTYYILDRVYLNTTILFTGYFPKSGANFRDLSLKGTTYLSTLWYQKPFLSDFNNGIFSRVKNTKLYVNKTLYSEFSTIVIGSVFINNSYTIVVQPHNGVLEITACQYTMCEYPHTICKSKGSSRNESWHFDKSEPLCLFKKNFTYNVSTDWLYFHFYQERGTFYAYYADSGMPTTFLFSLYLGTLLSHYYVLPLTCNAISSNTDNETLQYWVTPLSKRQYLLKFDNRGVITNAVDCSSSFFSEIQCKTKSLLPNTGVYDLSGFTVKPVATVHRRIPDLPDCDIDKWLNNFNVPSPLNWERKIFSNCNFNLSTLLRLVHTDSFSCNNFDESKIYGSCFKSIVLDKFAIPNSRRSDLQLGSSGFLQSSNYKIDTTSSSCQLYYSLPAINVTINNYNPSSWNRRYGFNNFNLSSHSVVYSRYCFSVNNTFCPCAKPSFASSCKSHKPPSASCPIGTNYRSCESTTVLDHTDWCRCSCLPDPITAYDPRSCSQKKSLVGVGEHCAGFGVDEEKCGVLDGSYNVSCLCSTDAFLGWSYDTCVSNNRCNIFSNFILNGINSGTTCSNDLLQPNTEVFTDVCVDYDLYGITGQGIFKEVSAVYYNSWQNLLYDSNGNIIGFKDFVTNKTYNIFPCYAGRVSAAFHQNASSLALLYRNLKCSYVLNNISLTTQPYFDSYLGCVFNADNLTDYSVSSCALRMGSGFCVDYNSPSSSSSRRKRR
The experiment is described as follows: titration ELISA.

In a further experiment the target is T5, HCoV-NL63 Spike protein (HCoV-NL63, UniProt Q6Q1S2 19-717).
T5 sequence: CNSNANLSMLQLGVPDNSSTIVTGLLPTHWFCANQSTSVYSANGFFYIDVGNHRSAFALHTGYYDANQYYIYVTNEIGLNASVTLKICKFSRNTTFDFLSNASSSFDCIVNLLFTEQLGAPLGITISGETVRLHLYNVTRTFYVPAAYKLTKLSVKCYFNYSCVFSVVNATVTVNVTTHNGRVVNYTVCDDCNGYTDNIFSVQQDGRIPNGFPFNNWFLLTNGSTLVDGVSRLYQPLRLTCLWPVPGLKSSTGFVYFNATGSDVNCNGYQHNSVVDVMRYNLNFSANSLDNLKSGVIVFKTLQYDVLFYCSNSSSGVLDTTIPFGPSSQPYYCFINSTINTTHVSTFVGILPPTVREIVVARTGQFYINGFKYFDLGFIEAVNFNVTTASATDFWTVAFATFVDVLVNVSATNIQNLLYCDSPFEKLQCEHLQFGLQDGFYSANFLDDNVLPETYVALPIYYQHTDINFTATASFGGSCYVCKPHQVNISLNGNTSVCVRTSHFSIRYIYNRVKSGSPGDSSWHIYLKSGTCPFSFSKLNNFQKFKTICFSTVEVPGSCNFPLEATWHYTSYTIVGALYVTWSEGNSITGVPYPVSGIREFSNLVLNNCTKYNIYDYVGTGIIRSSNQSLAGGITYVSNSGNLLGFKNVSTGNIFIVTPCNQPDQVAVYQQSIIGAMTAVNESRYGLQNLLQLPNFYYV
Put plainly: titration ELISA.

In a further experiment the target is T6, HCoV-229E Spike protein (HCoV-229E, UniProt P15423 16-560).
T6 sequence: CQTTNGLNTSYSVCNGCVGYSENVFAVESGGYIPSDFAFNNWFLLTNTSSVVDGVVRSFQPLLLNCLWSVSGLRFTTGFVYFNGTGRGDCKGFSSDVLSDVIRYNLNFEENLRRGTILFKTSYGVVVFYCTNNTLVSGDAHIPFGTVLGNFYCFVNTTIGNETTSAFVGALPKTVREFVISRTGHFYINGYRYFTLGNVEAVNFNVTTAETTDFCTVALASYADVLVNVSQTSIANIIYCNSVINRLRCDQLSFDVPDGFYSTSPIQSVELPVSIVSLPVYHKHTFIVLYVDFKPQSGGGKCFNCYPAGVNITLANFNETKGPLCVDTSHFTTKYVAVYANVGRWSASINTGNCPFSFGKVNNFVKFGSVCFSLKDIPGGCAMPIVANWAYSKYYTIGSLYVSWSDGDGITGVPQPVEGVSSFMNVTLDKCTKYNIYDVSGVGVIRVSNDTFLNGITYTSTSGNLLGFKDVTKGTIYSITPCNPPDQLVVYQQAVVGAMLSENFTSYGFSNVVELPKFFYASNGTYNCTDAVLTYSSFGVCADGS
Put plainly: titration ELISA.

Experiment [7] concerns the target S1-subunit of the SARS-CoV-2 glycoprotein S (SARS-CoV-2, UniProt P0DTC2 16-685). The experiment is described as follows: titration ELISA, IgG on S1.

B1: YU537-H11 (IgG) (antibody, V domains shown)
VH: EVQLLESGGGLIQPGGSLRLSCAASGLTVSSNYMSWVRQAPGKGLEWVSVIYSGGSTYYADSVKGRFTISRDNSKNALYLQMNSLRAEDTAVYYCARGESGSPYGMDVWGQGTLVTVSS
VL: QSVLTQPPSVSAAPGQKVTISCSGSSSNIGNNYVSWYQQLPGTAPKLLIYDTNKRPSGIPDRFSGSKSGTSATLGITGLQTGDEADYYCATWDSSLSVGVFGGGTKLTVL
For the molecule B1, the EC50 in experiment [1] amounted to 1.4 nM. Also, the Kd with S1-His [2] came to 32.5 nM. In addition, in [3], the “Virus neutralization (24-well titration) TCID50 (IgG)” value came out at 0.47 nM and the “Virus neutralization (96-well titration) TCID50 (IgG)” value amounted to 0.27 nM. Further, the Kd with S1-His [4] is 11.7 nM. This molecule returned a Neutralization in experiment [5] of 0.47 nM.

B2: YU537-H11 (Fab) (Fab, V domains shown)
VH: EVQLLESGGGLIQPGGSLRLSCAASGLTVSSNYMSWVRQAPGKGLEWVSVIYSGGSTYYADSVKGRFTISRDNSKNALYLQMNSLRAEDTAVYYCARGESGSPYGMDVWGQGTLVTVSS
VL: QSVLTQPPSVSAAPGQKVTISCSGSSSNIGNNYVSWYQQLPGTAPKLLIYDTNKRPSGIPDRFSGSKSGTSATLGITGLQTGDEADYYCATWDSSLSVGVFGGGTKLTVL
As for B2, in experiment [6], the affinity, expressed as Kd, was 61.1 nM. In other words, the double-digit nanomolar range.

B3: YU536-D04 (IgG) (antibody, V domains shown)
VH: QVQLVQSGGGLVQPGGSLRLSCAASGLTVSSNYMSWVRQAPGKGLEWVSVIYSGGSTYYADSVKGRFIISRDNSKNTLYLQMNSLRAEDTAVYYCARDLVVMGLDVWGKGTLVTVSS
VL: DIQLTQSPSSLSASVGDRVTITCRASQGISSYLAWYQQKPGKAPKLLIYAASTLQSGVPSRFSGSGSGTDFTLTISSLQPEDFATYYCQQLNSYPITFGQGTKLEIK
Regarding B3, in [1], a half-maximal response (EC50) required 1.1 nM. Moreover, the dissociation constant (Kd) with S1-His [2] worked out at 23 nM. Moreover, in experiment [3], the “Virus neutralization (24-well titration) TCID50 (IgG)” value is 0.4 nM and the “Virus neutralization (96-well titration) TCID50 (IgG)” value came out at 0.2 nM. Further, binding with S1-His [4] was characterised by a dissociation constant (Kd) of 5.49 nM. In experiment [5], the Neutralization was 0.4 nM.

B4: YU536-D04 (antibody, V domains shown)
VH: QVQLVQSGGGLVQPGGSLRLSCAASGLTVSSNYMSWVRQAPGKGLEWVSVIYSGGSTYYADSVKGRFIISRDNSKNTLYLQMNSLRAEDTAVYYCARDLVVMGLDVWGKGTLVTVSS
VL: DIQLTQSPSSLSASVGDRVTITCRASQGISSYLAWYQQKPGKAPKLLIYAASTLQSGVPSRFSGSGSGTDFTLTISSLQPEDFATYYCQQLNSYPITFGQGTKLEIK
B4: the binding result with SARS-CoV-1 Spike protein, with MERS-CoV Spike protein, in the experiment with HCov-HKU1 Spike protein, in the experiment with HCoV-NL63 Spike protein and with HCoV-229E Spike protein was “no binding” each time.

B5: YU536-D04 (Fab) (Fab, V domains shown)
VH: QVQLVQSGGGLVQPGGSLRLSCAASGLTVSSNYMSWVRQAPGKGLEWVSVIYSGGSTYYADSVKGRFIISRDNSKNTLYLQMNSLRAEDTAVYYCARDLVVMGLDVWGKGTLVTVSS
VL: DIQLTQSPSSLSASVGDRVTITCRASQGISSYLAWYQQKPGKAPKLLIYAASTLQSGVPSRFSGSGSGTDFTLTISSLQPEDFATYYCQQLNSYPITFGQGTKLEIK
Regarding B5, the affinity in [6], expressed as Kd, was 17.5 nM.

B6: STE90-C11 (IgG) (antibody, V domains shown)
VH: QVQLVESGGGLVQPGGSLRLSCAASGLTVSSNYMSWVRQAPGKGLEWVSVIYSGGSTYYADSVKGRFTISRDDSKNTLYLQMNSLRAEDTAVYYCARDVADAFDIWGQGTMVTVSS
VL: DIVMTQSPSFLSASVGDRVTITCRASQGISSYLAWYQQKPGKAPKLLIYAASTLQSGVPSRFSGSGSGTEFTLTISSLQPEDFATYYCQQLNSYPPFTFGPGTKVDIK
Regarding B6, the EC50 in experiment [7] and in [1] was 0.3 nM in each case. Besides, the figures for the Kd in the experiment with S1-His [2] and in the experiment with S1-His [4] were 6.53 nM and 1.56 nM, respectively. The “Virus neutralization (24-well titration) TCID50 (IgG)” value in experiment [3] stood at 0.56 nM. For the same molecule, the “Virus neutralization (96-well titration) TCID50 (IgG)” value in experiment [3] worked out at 0.91 nM. For the same molecule, in experiment [5], the Neutralization is 0.56 nM.

B7: STE90-C11 (Fab) (Fab, V domains shown)
VH: QVQLVESGGGLVQPGGSLRLSCAASGLTVSSNYMSWVRQAPGKGLEWVSVIYSGGSTYYADSVKGRFTISRDDSKNTLYLQMNSLRAEDTAVYYCARDVADAFDIWGQGTMVTVSS
VL: DIVMTQSPSFLSASVGDRVTITCRASQGISSYLAWYQQKPGKAPKLLIYAASTLQSGVPSRFSGSGSGTEFTLTISSLQPEDFATYYCQQLNSYPPFTFGPGTKVDIK
B7: in [6], binding was characterised by a dissociation constant (Kd) of 8.14 nM.
